{
  "source": "paper PMC2805019",
  "about": "(ACS chemical biology, 2008)",
  "molecules": {"B1": {"name": "alternating GC control DNA, biotinylated (dsDNA)", "DNA 1": "GCGCGCGCGCGCGCGCGCGCGCGCGCGCGCGCGCGCGCGCGCGCGCGCGC", "DNA 2": "CGCGCGCGCGCGCGCGCGCGCGCGCGCGCGCGCGCGCGCGCGCGCGCGCG"}, "B2": {"name": "randomized 30 bp dsDNA, nonbiotinylated (dsDNA)", "DNA 1": "CCGGTACGATACGACGATCGATAGTAGGCC", "DNA 2": "GGCCTACTATCGATCGTCGTATCGTACCGG"}, "B3": {"name": "randomized 30 bp dsDNA, biotinylated (dsDNA)", "DNA 1": "CCGGTACGATACGACGATCGATAGTAGGCC", "DNA 2": "GGCCTACTATCGATCGTCGTATCGTACCGG"}, "B4": {"name": "MazEF promoter DNA, biotinylated (dsDNA)", "DNA 1": "GCTCGTATCTACAATGTAGATTGATATATACTGTATCTACATATGATAGC", "DNA 2": "GCTATCATATGTAGATACAGTATATATCAATCTACATTGTAGATACGAGC"}, "B5": {"name": "MazEF promoter DNA, nonbiotinylated (dsDNA)", "DNA 1": "GCTCGTATCTACAATGTAGATTGATATATACTGTATCTACATATGATAGC", "DNA 2": "GCTATCATATGTAGATACAGTATATATCAATCTACATTGTAGATACGAGC"}},
  "key": {"[1]": {"target": "apoptosis inducing factor (AIF) (Homo sapiens, UniProt O95831)", "sequence (O95831 122-613)": "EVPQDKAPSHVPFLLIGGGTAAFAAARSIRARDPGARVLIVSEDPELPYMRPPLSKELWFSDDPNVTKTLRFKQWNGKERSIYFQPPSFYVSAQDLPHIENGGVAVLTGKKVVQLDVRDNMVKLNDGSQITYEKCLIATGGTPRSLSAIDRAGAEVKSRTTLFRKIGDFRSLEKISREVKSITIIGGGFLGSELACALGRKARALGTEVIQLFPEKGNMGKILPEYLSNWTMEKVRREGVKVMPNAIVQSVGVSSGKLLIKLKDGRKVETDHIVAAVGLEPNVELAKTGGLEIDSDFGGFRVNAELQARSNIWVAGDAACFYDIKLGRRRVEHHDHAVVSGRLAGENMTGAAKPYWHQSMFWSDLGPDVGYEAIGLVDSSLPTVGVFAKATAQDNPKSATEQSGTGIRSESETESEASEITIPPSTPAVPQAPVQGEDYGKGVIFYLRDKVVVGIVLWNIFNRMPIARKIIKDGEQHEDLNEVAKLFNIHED", "assay": "ITC", "type": "binding"}, "[2]": {"target": "T1, MazEF toxin-antitoxin complex (UniProt P0AE72;P0AE70 1-82;1-111)", "T1 sequence (P0AE72 whole entry, chain 1 of 2)": "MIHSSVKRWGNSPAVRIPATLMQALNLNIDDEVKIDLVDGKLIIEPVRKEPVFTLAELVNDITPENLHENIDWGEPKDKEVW", "T1 sequence (P0AE70 whole entry, chain 2 of 2)": "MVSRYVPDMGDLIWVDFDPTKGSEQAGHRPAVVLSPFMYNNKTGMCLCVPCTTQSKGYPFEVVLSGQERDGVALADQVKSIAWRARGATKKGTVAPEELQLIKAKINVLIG", "assay": "photonic crystal biosensor"}, "[3]": {"target": "T2, AIF (57 kDa form, AIFΔ1-121) (human, UniProt O95831 122-613)", "T2 sequence (O95831 122-613, stated change not applied)": "as the sequence (O95831 122-613) above", "assay": "competition"}, "[4]": {"target": "T2, AIF (57 kDa form, AIFΔ1-121)", "assay": "photonic crystal biosensor"}, "[5]": {"target": "T1, MazEF toxin-antitoxin complex", "assay": "photonic crystal biosensor", "remark": "listed apart in the source"}, "[6]": {"target": "T1, MazEF toxin-antitoxin complex", "assay": "competition"}},
  "data": [
    {"molecule": "O=C(O)C1=CC(=C(c2ccc(O)c(C(=O)O)c2)c2ccc(O)c(C(=O)O)c2)C=CC1=O", "note": "[ATA, aurin tricarboxylic acid]", "values": [
      {"measurement": "Kd", "setting": "[1]", "result": "19 ± 5", "unit": "µM"}
    ]},
    {"molecule": "B1", "values": [
      {"measurement": "binding result", "setting": "[2]", "result": "no binding"}
    ]},
    {"molecule": "B2", "values": [
      {"measurement": "binding result", "setting": "[3]", "result": "binds"}
    ]},
    {"molecule": "B3", "values": [
      {"measurement": "binding result", "setting": "[4]", "result": "binds"}
    ]},
    {"molecule": "B4", "values": [
      {"measurement": "binding result", "setting": "[5]", "result": "binds"}
    ]},
    {"molecule": "B5", "values": [
      {"measurement": "binding result", "setting": "[6]", "result": "binds"}
    ]}
  ]
}
